Assay results taken from patent US20250275560A1, “PROCESS OF MAKING GINGEROL COMPOUNDS AND THEIR USE AS FLAVOR MODIFIERS” (Firmenich SA, priority 2021, published 2025).

Experiments:
[1] = Characterization of oxidoreductases with regard to reduction of [6]-gingerol to the (3R,5S)-alcohol (HPLC); type: biochemical; conditions: recombinant E. coli enzyme suspension, NADH, 2-propanol, 25° C., 24 hours; for Ratio: 3S,5S/3R,5S (%) - 3R,5S share / Ratio: 3S,5S/3R,5S (%) - 3S,5S share: 2 mg [6]-gingerol; for Conversion (%): conversion of [6]-gingerol
Procedure: The oxidoreductases with the polypeptide sequences SEQ ID NO: 1 and SEQ ID NO: 3 were examined by the following method to determine the conversion rate and diasterioselectivity by reducing [6]-gingerol to the corresponding (3R, 5S)-alcohol:
Recombinant Escherichia coli cells which carry the genes of the oxidoreductases SEQ ID NO: 1 or SEQ ID NO: 3 were cultivated as described in Example 2. To produce an enzyme suspension, 1 g wet cells were completely resuspended with TEA buffer (100 mM triethanolamine pH 7.0, 2 mM MgCl2) in a total volume of 5 mL and then mixed until homogeneous by adding 5 mL glycerol solution (80% [v/v] in TEA buffer). In the reaction setup, 2 mg [6]-gingerol per […] of this enzyme suspension were added to 160 μL KPP buffer (100 mM potassium phosphate buffer, pH 7.5, 1 mM MgCl2), together with 0.0035 g NADH and 20 μL 2-propanol. After incubating the samples at 25° C. and 1200 rpm for 24 hours, the reaction solutions were extracted with 1 ml each of […] and centrifuged. 250 μL of the extract were removed and dried. Then 1 ml acetonitrile was added and analyzed by means of HPLC. A Luna PFP (2) column (150×3 mm) from Phenomenex (Germany) was used for detecting the conversion of [6]-gingerol and the diastereomers formed.

[2] = Determination of the enzyme activities for ethyl-2-oxo-4-phenylbutyrate with enzyme lysate (NADH absorption decrease at 340 nm); type: biochemical; conditions: enzyme lysate of recombinant RB791 cells, per wet cell mass; room temperature, pH 7.0, 0.3 mM NADH, 1 mM ethyl-2-oxo-4-phenylbutyrate; mean of at least three measurements
Procedure: Enzyme lysates (10% [w/v] and 20% [w/v] wet cell mass) were used to determine the enzyme activities. Enzyme lysates were prepared in TEA buffer (100 mM triethanolamine pH 7.0, 2 mM MgCl2). 0.1 g or 0.2 g wet cell mass was completely resuspended in 1 ml TEA buffer. The cells were disrupted in 2 ml reaction vessels by adding a 0.5 ml corresponding volume of glass beads at 24 Hz for 10 minutes in a vibrating mill (Retsch, MM200). The cell lysate was then sedimented in a tabletop centrifuge at 7500×g for 60 seconds. The cell-free supernatant, the enzyme lysate, was used immediately to determine the activity.
The activity was measured at room temperature in a reaction volume of 1 ml in a semi-micro cuvette (layer thickness 1 cm). The reaction mixture was composed as follows: 100 mM triethanolamine pH 7.0, 2 mM MgCl2, 0.3 mM NADH and 1 mM ethyl-2-oxo-4-phenylbutyrate (CAS No. 64920 29 2)
The reaction was started by adding 15 μL or 25 μL of enzyme lysate diluted in TEA buffer. The individual dilution was chosen for each enzyme lysate in such a way that a linear decrease in absorption at 340 nm could be recorded over a period of 30 seconds (UV-Vis spectrophotometer, Shimadzu). […] Each measurement was carried out at least three times and the mean values were determined. […] (SEQ ID NO: 1) or Weizmannia coagulans (SEQ ID NO: 3), respectively, enzyme activities of 1825 U/g and 71 U/g were determined.

B1: SEQ ID NO: 1: KRED polypeptide isolated from Bacillus sp, 248 amino acids, expressed recombinantly in Escherichia coli (protein, listed as Bacillus sp.)
chain: MSGRVAVITGAGSGIGRETCLTFARKGEKVVVADINEEKGLETTELVKAEGGEAVFVNTDVSKFEEVEALVDQAVETYGSIDIMFNNAGIGKMGHVLSLNIEDYLHVIDVNQHGVAYGIIAAGRKMRDLDIKGVIINSASVFGYLANFGTFPYQASKGAVRMMTQNAALELSQYGIRVVGIAPGSVDTSIIQAYKDAGMTQKMKEQQMRKELIRPEAIANAVYLLTLEEADVINGSVVMLDDGYASFK
**Q.** For B1, which “Ratio: 3S,5S/3R,5S (%) - 3R,5S share” value [1] is on record?
**A.** Its value is 95.5%.

**Q.** And the “Ratio: 3S,5S/3R,5S (%) - 3S,5S share” value [1]?
**A.** The value was 4.5%.

**Q.** And the “Conversion (%)” value [1]?
**A.** Its value is over 71%.

**Q.** And the enzyme activity [2]?
**A.** The enzyme activity was 1825 U/g.

B2: SEQ ID NO: 3: KRED polypeptide isolated from Weizmannia coagulans, 248 amino acids, expressed recombinantly in Escherichia coli (protein)
chain: MSGRVAVITGAGSGIGWETSLTFARKGDSVVVADIDEEKGLETVELIKQEGGDAVFAKTDVSKFEEVESLVNQAVEIYGTIDVMFNNAGIGTLGHILSKKIEDYLRVIDVNQHGVAYGIIAAGRKMRELDVKGVIINTASVFGYLANFGTFPYQAAKGAVRMMTQNAALELAQYGIRVVGIAPGCVDTPIIQAYKDAGMTQKMTEQQMRKKLIRPEAIANAVYLLTLEEADAINGSVVMLDDGYASFK
modifications: Weizmannia coagulans
notes: KRED polypeptide isolated from Weizmannia coagulans, 248 amino acids, expressed recombinantly in Escherichia coli
**Q.** Which “Ratio: 3S,5S/3R,5S (%) - 3R,5S share” value [1] does the source give for B2 here?
**A.** Its value is 98.6%.

**Q.** And the “Ratio: 3S,5S/3R,5S (%) - 3S,5S share” value [1]?
**A.** Its value is 1.4%.

**Q.** And the “Conversion (%)” value [1]?
**A.** The value was over 84%.

**Q.** What about the enzyme activity [2] of the same molecule?
**A.** Its enzyme activity is 71 U/g.
